The sequences below were run on K4 kissing-loop RNA reporter (assay: apparent KD of K4 kissing-loop reporter; higher = weaker reporter binding). Settings: Eterna round: R107; input ligand: FMN 200 uM.
Experimental: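 RNA-MaP round R107: designed RNA switches with theophylline, tryptophan, arginine or FMN aptamers are transcribed on-chip within common flanks. They are titrated with a labelled K4 kissing-loop RNA reporter in RNA-MaP buffer (100 mM Tris pH 7.5, 80 mM KCl, 4 mM MgCl2), without ligand or with the indicated ligand. Median apparent KD per design.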
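Note: bound reporter read as fluorescence of individual clusters on recovered sequencing chips by microscopy, with normalized cluster intensities fitted with a binding model.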

Sequence	apparent KD of K4 kissing-loop reporter [nM]
UGUGUUUACCUGACUCAGUGAUGUUGAGAAGGAGCGUGCGAAAGCACAGGUAGGUCGCUCAACCUAAAUUCAGGUGAGCACUAAA [#SwitchBubble 10 #K4Early]	268
AUCACAGUGAUGUUGUGAUAUACUUCAGAUACCAGACUAGUGCUAGUCCCUUGGCAGCUGAACUCAGCAGCACCACUAGCACUCG [Theo A Ex t6a]	153
GUAGCACUUGAUAGUGAUGUUAGCAAGGGCAAGGAUAUCAUCUCAAUGAGAAGGUGUCCUUGCUAACAGCUACGGGAAUAUCCCA [Omei KL FMN A Exc D v5]	173
GGCAGAGCGCGAAGGAGCGCCCUGACAGGUUGCUGCCGUGGGCAGUGAUGUUGCUCAGUCCGGCAGGUAGGUCGCGUGCUCUGCC	167
CGAACACCCUCGGCCGCCACUAGCCGUAGCCUGCGCUUGCGGAGUGAUGUUCUGAAGCAGGAUGUUAGGACCGGGAGCUACAUCC [theeternabot_sameState_KL_Trp_B_33]	527
AUCUUGCAUUCGGCCGCCACUAUCGUGCAGUGAUGUUGCGCGAGUGACGCGUCCCGCAGUGCAGGUAGGACCGGGAAUGAUACCC [Erlazaar]	128
UACAUAUAAUUAUUUCUACAUUUAUUUAGUCAGGAUAUCGAUUAAACGAGAAGGGACAAUAUCAAGUGAUGUUUGAUAAUUCAAA [JR_ExcFMNA_Sub010]	84.6
UCGAAGGAUGGAAGGAGCGCUCGUCAGUCCUGCGAGUGAUGUUCGUGGGUAAAUAGUCGCGAGCAGGUAGGUCGCCAUCUUGAGA [Lageso]	110
AGUACGCCCAGUGAUACCAGCCCGCCUGGGCAGUGAUGUUGCUCGGGAAAUAAAAUAGAGGGCCCUUGGCAGCACACGGUAGUCC [Cees]	186
AGGUUUUGAUUAGGAUAUGCACUGAGGACGAGAAUAUAGUGAUGUUAUAUAAUAGGAAUUAGUAGAGUAGAAGGGAUUGAGGUUU [SSFMNB.V]	244
AAGAGUAAACUCUAACUCCUUAAGUCCGAAGGAGCGACUCAAUGGUCAGGUAGGUCGCGGACAAUCCUAGUGAUGUUAGGAUCUG [Arg A SS t5]	252
AGUCGCAGUGAUGUUGCGAUUCCGUUGAGGGAGGAUAUUGGUAAUACAAGAAGGCCCGGCUGCGGGUGAUGUUCGCAAUAGGGCC [Exclusion FMN A GF19]	138
UACGUUUUAUUAACACUAAAUACAACUGAAGGAGCGACAAUAAAGUCAGGUAGGUCGCAGAAUUAAUGAGUGAUGUUCAUUUUUA [JR_ExcArginiA_Sub015]	56.2
GCCGUAGAUUGAAGGAGCGGACAGAUACGGGUAUCCAGUGAUGUUGGAAGGUAGCUACUAGUCCAGGUAGGUCGCAAUCUACGGC	283
GGAUAGGACAGAGGAUAUCCAGUGAUGUUGGAGAAUUCUCCUUAAACAUGUCACAAAAGUGGCAUGGGAGAAGGCUGUCCUAUCG [Mod of Eli's FmnBX 29 v1]	217
UCUUUUGUAUAUGAUACCAGCAGUGAGAGACAGGAAGUAUAGUGAUGUUAUAUGAGAGAAUGCCCUUGGCAGCGUGUGCGGUGGG [SSTheophylB.U]	151
CCUUCUCUUGAUAGUGAUGUUAUCAAGGGCAAGGAUAUCAUUUUAAUGAGAAGGUGUCCUUGAUAACAUGGAGGUCUGAAACAGA [Omei KL FMN A Exc C v6]	151
ACACUAUCGUCAUAGACGGUAGUGACAUCUCAGGAUAUAAGUGAUGUUAGAAGGGAGAAAAUCUUAGGUAUCGAAUAGAUACCAA [FmnA 8 #K4BetweenAptamer #OpenEnded]	415
CCCUCACGAGUGAUGUUCGUAGGGUACAGUCAGGAUAUCAUGCGGUUGAGAAGGGACAGAGAGGGCGGCCACGGGUUGCUCAUCU [Tiongequ]	187
GAAAGAAAGUAUGAUACCAGACACCCGAGUGAUGUUCGGAACAGUGUGUUGUUCUUUUAAGUCCCUUGGCAGCAUAAAAGAAAAG [whbob_SS_Theo_B_sa86]	135
UGUACCGAGUCAGGAUAUGGUAUAGCGGAAACGCACCAGUGAUGUUGGACGCGAAAGCGAUAAAAUCCAGAAGGGACUUGGUACU [FmnBS 20 #SwitchBubble #StaticStem #DoubleMagnetSystem]	184
GGAUAGGACAGAGGAUAUGGUAGUGAUGUUACCAAACUGGUUACUCUUGUCAGAAAACUGGCAUCUCUAGAAGGCUGUCCUAUCG [KL-XFMN-B9]	389

Sequence	apparent KD of K4 kissing-loop reporter [nM]
ACUGGAAACAUCACGUAUCCAAAACUGGAUACCAGCUCGGAAACGAGCCCUUGGCAGCCAGAACUUGCAGUGAUGUUGCAAGUAA [Design9]	386
UGUACCGAGGCAGGAUAUGUCGUCGAAAGACGAAAUGGAGUGAUGUUCCUUAAACUGCGAAAGCAGACAGAAGGGCCUUGGUACU [FmnBS 29 G10+C76]	132
CACCCUGGACAAGGAUAUAUCAUGCGCCAAGGGCAGUGAUGUUGCCACAGGCUUGGGUCCAGUUCGAUAGAAGGUGUCUGGUAUU [theeternabot_sameState_KL_FMN_B_4]	203
GGCACGGGCUCGGCCGCCACUCCCGCGGGUCGUAAGGUCCGCUACUGAGUGAUGUUCGGUUGGAGGAGGACCGGGAGCCCGUGCC [#2 Exclusion - Tryptophan B Attempt #20 (HarryS)]	149
GCCAGAGCGCGAAGGAGCGCCGUGACAGGUUGCUGCCGUGGGCAGUGAUGUUGCUCAGUCUGGCAGGUAGGUCGCGUGCUCUGGC	196
GGGAUGUAGUGAUGUUAUAUUGGAUGUAGACGAGGACCGGUACGGCCGCCACUCGUGAUGGCUGCUAGCACGUUUCGAUGUUUGC [ExTryptoA.Cs]	410
UUAGAGAUCUCAGGAUAUCAGUGAUGUUGUGAUCCAGAUCUGAGAUAGAAUUCUAUCUCAGAUCAAUGAGAAGGGAGAUCUCAUU [AK4.3 Exc FMN B]	721
UAAUUUAUAACUUUUAUAUAAUAAUCAGAUACCAGUGAUUAAUGUCACCCUUGGCAGCUGUAUAGAGUGAUGUUCUAAUGCUUAA [JR_SSTheophyA_Sub023]	204
GCACGAGUGAUGUUCGUUGGCAUGCAUUCCGAGGAUAUGGGAUUAGCCAGAAGGCGGAAUCGGUCUUCGAGUGAUGUUCGAAGAU [Same State FMN A GF 13]	104
ACCAUCAAAGAUGGCCAGGACUCCGCUGAUACCAGAGUGAAAACACUCCCUUGGCAGCAGGUGAGUGAUGUUCACAAGUCCUGGA [Omel KL Theo A SS B v5]	1160
UUUAUAGUGACGGCCGCCACUAUAUUAAUGUUUAGGUUAGAGUGAUGUUUUGAUUAAUAUUUUUAUAGGACCGGGUUAUAUGUUU [ggbvmullin]	669
UGGGAUGUUAAAGGAUAUAGAAAGUGAUAUUAGAAAGUGAGUGAUGUUGAUGUAGGUGAUGAUAUGUUAGAAGGUUAACAAAACG [abcde]	411
AUUGUAUACUGAAGGAGCGAGUAGUGGAAACAUAAACUCAUUGCGAGUGAUGUUCGCAGUACUCAGGUAGGUCGCAGUAAUGGUA [Exclusion Arginine B Gf 9]	756
AAUAUAUAGUGAAGGAGCGCGUAUAGCAGUGAUGUUGCUUACUUAUUAUUAUAUUUUUUGACGCAGGUAGGUCGCACUAUAUAUA [JR_ExcArginiB_Sub021]	242
GAUCGAUGUCAGGAUACCAGCGGAAUCGUCGGAGACUCGAGUGGAGUGAUGUUCCCAGCACGCCCUUGGCAGCCUUGUUUAAGAU [theeternabot_sameState_KL_Theo_B_19]	312
GCUAGUGCCCGCUCGAAAGAGCGUGUGUGUAAGGAUAUCUAGUAAUAGAGAAGGUACGGAGUGAUGUUCCCACACGGGCACUAGC	705
UAGGUGCCGAACCAGUGAUGUUGGAGUCAUCGAGGACCGGUACGGCCGCCACUCGGCAGCGCCGGCGCGAUUAAUUGCGGAGACA [theeternabot_sameState_KL_Trp_A_7]	689
UGUACCGAGUCAGGAUAUGGCGUCGAAAGACGAAUCUUAGUGAUGUUAAGGAUCUGCGAAAGCAGUCCAGAAGGGACUUGGUACU [FmnBS 26 U37+A49]	236
GAUCUGAACGAAAGUUCGGAUCAGUCCGAUACCAGUAUGGAUUCAUACCCUUGGCAGCGGUUAUCUGCUAUGGAGUGAUGUUCCU [Theophylline A K4 12]	363
CGACCGGUAGCGGAUACCAGCCUUUGAGUGAUGUUCGAGUUGAGUUUCCGCGCGUCGAAAGGCCCUUGGCAGCCGAUACGCCUUC [theeternabot_exclusion_KL_Theo_B_14]	236
UGUUAUGUAUCAGGAUAUUAGUGAUGUUUGUUUAUGUUAGUGAUGUUGAUAUUUGUUUUAUGUAUUUAAGAAGGGAUUGUGAUGU [xexxmullin]	74.1

Same assay, conditions: Eterna round: R107; input ligand: arginine 13.2 mM

Sequence	apparent KD of K4 kissing-loop reporter [nM]
UGUGUUUACCUGACUCAGUGAUGUUGAGAAGGAGCGUGCGAAAGCACAGGUAGGUCGCUCAACCUAAAUUCAGGUGAGCACUAAA [#SwitchBubble 10 #K4Early]	234
AUCACAGUGAUGUUGUGAUAUACUUCAGAUACCAGACUAGUGCUAGUCCCUUGGCAGCUGAACUCAGCAGCACCACUAGCACUCG [Theo A Ex t6a]	130
GUAGCACUUGAUAGUGAUGUUAGCAAGGGCAAGGAUAUCAUCUCAAUGAGAAGGUGUCCUUGCUAACAGCUACGGGAAUAUCCCA [Omei KL FMN A Exc D v5]	424
GGCAGAGCGCGAAGGAGCGCCCUGACAGGUUGCUGCCGUGGGCAGUGAUGUUGCUCAGUCCGGCAGGUAGGUCGCGUGCUCUGCC	115
CGAACACCCUCGGCCGCCACUAGCCGUAGCCUGCGCUUGCGGAGUGAUGUUCUGAAGCAGGAUGUUAGGACCGGGAGCUACAUCC [theeternabot_sameState_KL_Trp_B_33]	542
AUCUUGCAUUCGGCCGCCACUAUCGUGCAGUGAUGUUGCGCGAGUGACGCGUCCCGCAGUGCAGGUAGGACCGGGAAUGAUACCC [Erlazaar]	119
UACAUAUAAUUAUUUCUACAUUUAUUUAGUCAGGAUAUCGAUUAAACGAGAAGGGACAAUAUCAAGUGAUGUUUGAUAAUUCAAA [JR_ExcFMNA_Sub010]	127
UCGAAGGAUGGAAGGAGCGCUCGUCAGUCCUGCGAGUGAUGUUCGUGGGUAAAUAGUCGCGAGCAGGUAGGUCGCCAUCUUGAGA [Lageso]	96.9
AGUACGCCCAGUGAUACCAGCCCGCCUGGGCAGUGAUGUUGCUCGGGAAAUAAAAUAGAGGGCCCUUGGCAGCACACGGUAGUCC [Cees]	144
AGGUUUUGAUUAGGAUAUGCACUGAGGACGAGAAUAUAGUGAUGUUAUAUAAUAGGAAUUAGUAGAGUAGAAGGGAUUGAGGUUU [SSFMNB.V]	153

Source: the supplement of paper PMC9170038
